Experimental data from article PMC3184955.
“And” between values parts separate entries of the source, which are not always exact repeats. Equal values may be shown once. Read-outs that look alike come from different tables or passages of the source.

Tests used:
Test in all cases: AUC; sedimentation velocity, 40,000 rpm, 25°C, 2 mg/ml, 10 mM Tris, ~pH 7.0; c(s) model (SEDFIT)
[1] = target: Amel-C (amelogenin C-terminal fragment, AA 86-180) (mouse)
[2] = target: full-length recombinant mouse amelogenin (M180) (mouse)
[3] = target: full-length recombinant mouse amelogenin (M180) (mouse); remark: listed apart in the source

Substance	percent as larger aggregations [1] [%]	percent as tetramers [1] [%]	stoichiometry N [1]	stoichiometry N [2]	stoichiometry N [3]
Amel-C (amelogenin C-terminal fragment, AA 86-180) (domain or fragment)	2	7.5	4 and 6		
full-length recombinant mouse amelogenin (M180) (natural protein)				40	50
